Patent US20020160955A1 (published 2002)

What was measured:
Experiment in all cases: competitive phage ELISA
[1] = target: T1, IGF-I Y31A (G1S-A70V background) displayed on phage (human; bacteriophage M13)
T1 construct: monovalent M13 phage display; not shown: M13 gene III fragment (residues 249-406, display partner) and the junction to it
T1 chain: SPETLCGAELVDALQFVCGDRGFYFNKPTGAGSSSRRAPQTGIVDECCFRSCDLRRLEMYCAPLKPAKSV
Protocol: (§1) Phage particles were harvested and resuspended in PBS buffer as described in Lowman, H. B., “Phage Display of Peptide Libraries on Protein Scaffolds,” in Cabilly, S. (ed.), Combinatorial Peptide Library Protocols (Humana Press Inc.: Totowa, N.J., 1998), pp. 249-264. Then phage concentrations were normalized to yield a maximal ELISA signal of 0.2-0.4 for each mutant (Lowman, in Cabilly, S. (ed.), supra). Threefold serial dilutions of soluble competitor were prepared on non-absorbent microtiter plates (Nunc, F, 96 wells) with binding buffer (0.5% TWEEN™ 20/PBS) containing phage at the previously-determined concentrations. […] After blocking, the plates containing immobilized target were washed with 0.05% TWEEN™/PBS buffer and subsequently incubated with 80 μl/well of the premixed phage-competitor solutions for 1 hour at room temperature. After washing, bound phage was detected with 80 μl/well of a solution containing a primary rabbit anti-phage polyclonal antibody and a secondary goat anti-rabbit monoclonal antibody-horseradish peroxidase conjugate in 0.5% TWEEN 20™/PBS. o-Phenylenediamine (Sigma) and tetramethylbenzidine (Kirkegaard and Perry) were used as chromogenic substrates, resulting in product detection at 492 and 450 nm, respectively. IC₅₀ values were determined by fitting the binding data to a generic saturation curve (Lowman, in Cabilly, S. (ed.), supra). […] Numbers in Table I represent mean +standard deviation of individually assessed IC₅₀ values.
(§2) At least two different clones of every mutant were tested.

[2] = target: T2, IGF-I K68A (G1S-A70V background) displayed on phage (human; bacteriophage M13, UniProt P69168 267-424)
T2 chain: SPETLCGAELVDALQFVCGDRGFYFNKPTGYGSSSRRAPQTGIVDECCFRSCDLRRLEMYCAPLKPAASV
Protocol: as §1, §2

[3] = target: T3, IGF-I P28A (G1S-A70V background) displayed on phage (human; bacteriophage M13)
T3 construct: monovalent M13 phage display; not shown: M13 gene III fragment (residues 249-406, display partner) and the junction to it
T3 chain: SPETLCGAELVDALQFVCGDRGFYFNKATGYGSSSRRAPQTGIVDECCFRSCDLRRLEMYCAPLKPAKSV
Protocol: as §1, §2

[4] = target: IGF-I V70A (G1S-A70V background) displayed on phage (human; bacteriophage M13, UniProt P69168 267-424)
Protocol: as §1, §2

[5] = target: T4, IGF-I R55A (G1S-A70V background) displayed on phage (human; bacteriophage M13)
T4 construct: monovalent M13 phage display
T4 chain: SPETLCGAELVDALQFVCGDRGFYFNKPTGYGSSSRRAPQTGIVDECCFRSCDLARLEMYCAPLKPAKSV
Protocol: as §1, §2

[6] = target: T5, IGF-I M59A (G1S-A70V background) displayed on phage (human; bacteriophage M13)
T5 construct: monovalent M13 phage display; not shown: M13 gene III protein fragment (residues 249-406), the phage display carrier, and its junction to IGF-I
T5 chain: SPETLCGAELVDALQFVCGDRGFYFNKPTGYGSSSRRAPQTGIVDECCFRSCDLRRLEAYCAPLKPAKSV
Protocol: as §1, §2

[7] = target: T6, IGF-I F23A (G1S-A70V background) displayed on phage (human; bacteriophage M13, not fully specified; Displayed monovalently on M13 phage as a C-terminal fusion to the gene III fragment, which is left out of the letters.)
T6 construct: monovalent M13 phage display; not shown: Display carrier: M13 gene III fragment (residues 249-406) and its junction
T6 chain: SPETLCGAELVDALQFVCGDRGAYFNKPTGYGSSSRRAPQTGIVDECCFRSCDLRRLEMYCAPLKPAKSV
Protocol: as §1, §2

[8] = target: T7, IGF-I I43A (G1S-A70V background) displayed on phage (human; bacteriophage M13)
T7 construct: monovalent M13 phage display
T7 chain: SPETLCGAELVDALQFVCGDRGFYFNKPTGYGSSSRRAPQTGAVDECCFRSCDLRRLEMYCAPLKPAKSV
Protocol: as §1, §2

[9] = target: T8, IGF-I G30A (G1S-A70V background) displayed on phage (human; bacteriophage M13)
T8 construct: monovalent M13 phage display; not shown: M13 gene III fragment (residues 249-406, display partner) and the junction to it
T8 chain: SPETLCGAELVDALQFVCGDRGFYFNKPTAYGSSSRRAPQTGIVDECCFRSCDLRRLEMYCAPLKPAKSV
Protocol: as §1, §2

[10] = target: T9, IGF-I D12A (G1S-A70V background) displayed on phage (human; bacteriophage M13)
T9 construct: monovalent M13 phage display
T9 chain: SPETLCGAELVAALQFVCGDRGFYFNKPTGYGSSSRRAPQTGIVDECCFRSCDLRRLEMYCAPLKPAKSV
Protocol: as §1, §2

[11] = target: T10, IGF-I D53A (G1S-A70V background) displayed on phage (human; bacteriophage M13)
T10 construct: monovalent M13 phage display
T10 chain: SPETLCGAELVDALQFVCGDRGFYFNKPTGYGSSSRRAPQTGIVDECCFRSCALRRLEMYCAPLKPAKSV
Protocol: as §1, §2

[12] = target: T11, IGF-I Y60A (G1S-A70V background) displayed on phage (human; bacteriophage M13)
T11 construct: monovalent M13 phage display; not shown: M13 gene III protein fragment (residues 249-406), the phage display carrier, and its junction to IGF-I
T11 chain: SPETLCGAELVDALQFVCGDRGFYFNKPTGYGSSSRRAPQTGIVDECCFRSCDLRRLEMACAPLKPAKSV
Protocol: as §1, §2

[13] = target: T12, IGF-I L54A (G1S-A70V background) displayed on phage (human; bacteriophage M13)
T12 construct: monovalent M13 phage display
T12 chain: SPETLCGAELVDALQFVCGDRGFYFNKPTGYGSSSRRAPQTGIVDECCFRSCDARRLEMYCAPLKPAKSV
Protocol: as §1, §2

[14] = target: T13, IGF-I E3A (G1S-A70V background) displayed on phage (human; bacteriophage M13, UniProt P69168 267-424)
T13 chain: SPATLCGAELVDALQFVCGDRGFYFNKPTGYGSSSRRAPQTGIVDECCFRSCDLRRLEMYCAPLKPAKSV
Protocol: as §1, §2

[15] = target: T14, IGF-I P66A (G1S-A70V background) displayed on phage (human; bacteriophage M13)
T14 construct: monovalent M13 phage display; not shown: M13 gene III protein fragment (residues 249-406), the phage display carrier, and its junction to IGF-I
Protocol: as §1, §2

B1: human IGFBP-1 (other, UniProt P08833 26-259, looked up)
chain: APWQCAPCSAEKLALCPPVSASCSEVTRSAGCGCCPMCALPLGAACGVATARCARGLSCRALPGEQQPLHALTRGQGACVQESDASAPHAAEAGSPESPESTEITEEELLDNFHLMAPSEEDHSILWDAISTYDGSKALHVTNIKKWKEPCRIELYRVVESLAKAQETSGEEISKFYLPNCNKNGFYHSRQCETSMDGEAGLCWCVYPWNGKRIPGSPEIRGDPNCQIYFNVQN
notes: secreted recombinant protein purified from conditioned medium
IC50 [1]: 6.8 nM | IC50 [2]: 10.5 nM | IC50 [3]: 9.3 nM | IC50 [4]: 19.1 nM | IC50 [5]: 9 nM | IC50 [6]: 13.1 nM | IC50 [7]: 10.9 nM | IC50 [8]: 31.3 nM | IC50 [9]: 7.1 nM | IC50 [10]: 4.3 nM | IC50 [11]: 15.3 nM | IC50 [12]: 6.6 nM | IC50 [13]: 23.1 nM | IC50 [14]: 278 nM | IC50 [15]: 9.4 nM
